{
  "source": "patent US20170152290A1",
  "target": "sLRP1-CIV (cluster IV of LRP1 fused to the constant region of a human IgG1) (human)",
  "test": "SPR (Biacore X), sLRP1-CIV immobilised on CM5 chip, peptide at 20 µM; RU observed at 160 s",
  "data": [
    {"binder": "CSNIVIGIGDKALKINACKKK (modifications not checked)", "note": "[peptide HDIII3CLW-]", "values": [
      {"measurement": "RU (at 160 s)", "result": 192, "unit": "RU"}
    ]},
    {"binder": "SSNIVIGIGDKALKINWSKKK (modifications not checked)", "note": "[peptide HDIII3CLC-]", "values": [
      {"measurement": "RU (at 160 s)", "result": 38.2, "unit": "RU"}
    ]}
  ]
}
